From the DeepSol protein solubility set

Assay: soluble on expression in E. coli; label from the status in PepcDB or PDB records

Sequence | soluble on expression in E. coli
MSLGQKGHKDSLYPCGGTPESSLHEALDQCMTALDLFLTNQFSEALSYLKPRTKESMYHSLTYATILEMQAMMTFDPQDILLAGNMMKEAQMLCQRHRRKSSVTDSFSSLVNRPTLGQFTEEEIHAEVCYAECLLQRAALTFLQDENMVSFIKGGIKVRNSYQTYKELDSLVQSSQYCKGENHPHFEGGVKLGVGAFNLTLSMLPTRILRLLEFVGFSGNKDYGLLQLEEGASGHSFRSVLCVMLLLCYHTFLTFVLGTGNVNIEEAEKLLKPYLNRYPKGAIFLFFAGRIEVIKGNIDAAIRRFEECCEAQQHWKQFHHMCYWELMWCFTYKGQWKMSYFYADLLSKENCWSKATYIYMKAAYLSMFGKEDHKPFGDDEVELFRAVPGLKLKIAGKSLPTEKFAIRKSRRYFSSNPISLPVPALEMMYIWNGYAVIGKQPKLTDGILEIITKAEEMLEKGPENEYSVDDECLVKLLKGLCLKYLGRVQEAEENFRSISANEKKIKYDHYLIPNALLELALLLMEQDRNEEAIKLLESAKQNYKNYSMESRTHFRIQAATLQAKSSLENSSRSMVSSVSEGHHHHHH | soluble
VRRDRAPPERGGAGTSQDGTSKNWFKITIPYGRKYDKAWLLSMIQSKCSVPFTPIEFHYENTRAQFFVEDASTASALKAVNYKILDRENRRISIIINSSAPPHTILNELKPEQVEQLKLIMSKRYDGSQQALDLKGLRSDPDLVAQNIDVVLNRRSSMAATLRIIEENIPELLSLNLSNNRLYRLDDMSSIVQKAPNLKILNLSGNELKSERELDKIKGLKLEELWLDGNSLCDTFRDQSTYISAIRERFPKLLRLDGHELPPPIAFDVEAPTTLPP | soluble
MAHHHHHHMTNDTEQEQSPSAELAAAAPEPQPSQPQEFYSLRGESHNAVDQEKYGRARTHIAGLGHVSAKDVFKHYRRSWLTPFFGSNEPEPTLQQEGTQHPCQIFSREVHQCLEDHHNSFAFCQTRVAAFQQCLREFSI | not soluble
MGSDKIHHHHHHMTVQRREKGSSITRVLEIIEAISRAERPMSPAELAFLLDIPKPSIHRLLQQLEADNYVQINMRGLLVPGDRMHSIALGVLHSSRFKALRQAILKKLAETIGETCGIAIPDGIEMIYYDRVQTNWPLRVNLPVGSHTPVACTASGKLYLSSLPKERRHRIIGKLSLEKLARNTLIESESLEKELINIQANELGTDNEEFIDGMVACSVPIKDQDGKLFACLFTHAPVIRKSLDELLAFEPALRHAAIELGDLLKEQ | not soluble
MILSVHILDQQTGKPAPGVEVVLEQKKDNGWTQLNTGHTDQDGRIKALWPEKAAAPGDYRVIFKTGQYFESKKLDTFFPEIPVEFHISKTNEHYHVPLLLSQYGYSTYRGS | soluble
MPQSKFRLCSTKGTSMFSHIMIGSNDIEKSKVFYDAILSVLGYPAGVIDAKGRCLYINQDGVLGITKPVNGEPATHGNGMTIGFKVSSPELVEAWHAAGLANGGVACEDPPGIRTSGQRKMYLAYLRDPAGNKLCATHHMSTGN | not soluble
SDYEKFLLFGDSITEFAFNTRPIEDGKDQYALGAALVNEYTRKMDILQRGFKGYTSRWALKILPEILKHESNIVMATIFLGANDACSAGPQSVPLPEFIDNIRQMVSLMKSYHIRPIIIGPGLVDREKWEKEKSEEIALGYFRTNENFAIYSDALAKLANEEKVPFVALNKAFQQEGGDAWQQLLTDGLHFSGKGYKIFHDELLKVIETFYPQYHPKNMQYKLKDWRDVLDDGSNIMS | soluble
MTTLQEAYLAFKSAQIIDLTHQINENSPHFPLLPALEKKDLFTLKDGFHIQQFTVVGQYGTHIDAPIHFVEGGAWLDELPLEDLLLPMYVIDKSQAVADNPNYELSKADILAFEEKYGQIEEGAFVAFRSDWSKRWPSQEEFRNLDTAGAQQTPGWSHEALEFLIHERQVKAVGHETFDTDSGQAVAENGKLVEEYYLLDQGIYQLEVLNNLNLLPATGSFISIAYPHWEKATGSPVRAIAYIAQELEHHHHHH | soluble
MSLRPVKLAALLPLTGPFAFAGNAGREGFVDGVDYVNEVLGGIAGRKLELIVEDTGYDVAKGTAAFNRVLSRERPDELLFVYGDSTGLSKALAPEIARIGLPYSATSFANELADPEKYPTIFVFGPTYNDMMEALLRQIRLQKGKARIALVYSNTEFGRDPIPYVKERAKALGMEVVHEEVTPPAFTDATPVVLNLRRANPDFVLLQGYALSAEPLILRAAREQGLRAQFMGTYYSAELVLIQRAGPAAEGFTVTYHNPYWYDTLVPAVDEMRKFRQRKGRDSSYRPTYYMGSLAVALGVAEAMRRAAQAGKLTRAGVVEYLEKIGDYNAMGLVRGYQFVNHRIPYTKLYRASVKDGRFNAITDWLKLAEGHHHHHH | soluble
NDDIIVNWVNETLREAEKSSSISSFKDPKISTSLPVLDLIDAIQPGSINYDLLKTENLNDDEKLNNAKYAISMARKIGARVYALPEDLVEVNPKMVMTVFACLMGKGMKRV | soluble
GLVNAHTHLEMTPLIGAFSELELTEMLGSGTALFNRLGNGEFEYLVEAGVELAALNFLLGGVTTVNSMDARPAAGAEAFGEAGLRGFFGPAISDLFWDQPVDQQFSRAREFVETYHDTYDGRIRATICPHDDWSCTRQLWERTASLAAEYPDLLVHTHLLELEESNTMARANGGEDSVGLLDDVGLLDDRLVAAHFRLGDEEDIQRTAEADAAVAHCPSVFCYWNPDGETQWTPVPELRAAGVDVGVGIDDHYWHDSYSMFGEARQARLAANLKRSAGQFDSMELIRMLTIEGARALGMGDE | not soluble
MKEEIIIAGFGGQGVLSMGKILAYSGLMEGKEVTWMPAYGPEQRGGTANVTVIVSDDKISSPILSKYDTAIILNQPSLEKFESRVKPGGILIYDGYGIINPPTRKDIKVYRIDAMDAANEMNNAKAFNMIVLGGLLKLRPIVTLENVVKGLKKTLPERHHHLIPMNEEAIKKGMELIRE | not soluble
MSLKKLITANDIREAHARGEQAMSVVLRASIITPEAREVADLLGFTITECDESIPVTASVPASVPADKTESQRIRETIIAQLPEGQFTESLVAQLMEKVMKEKQSLEQGAMQPSFKSVTGKGGIKVIDGSSVKFGRFDGAEPHCVGLTDLVTGDDGSSMAAGFMQWENAFFPWTLNYDEIDMVLEGELHVRHEGQTMIAKAGDVMFIPKGSSIEFGTTSSVKFLYVAWPANWQSLEGGSHHHHHH | soluble
MSAEEQDTRSGGIQVIARAAELLRVLQAHPGGLSQAEIGERVGMARSTVSRILNALEDEGLVASRGARGPYRLGPEITRMATTVRLGVVTEMHPFLTELSRELDETVDLSILDGDRADVVDQVVPPQRLRAVSAVGESFPLYCCANGKALLAALPPERQARALPSRLAPLTANTITDRAALRDELNRIRVDGVAYDREEQTEGICAVGAVLRGVSVELVAVSVPVPAQRFYGREAELAGALLAWVSKVDAWFNGTEDRK | soluble
GSMEPGPDGPAASGPAAIREGWFRETCSLWPGQALSLQVEQLLHHRRSRYQDILVFRSKTYGNVLVLDGVIQCTERDEFSYQEMIANLPLCSHPNPRKVLIIGGGDGGVLREVVKHPSVESVVQCEIDEDVIQVSKKFLPGMAIGYSSSKLTLHVGDGFEFMKQNQDAFDVIITDSSDPMGPAESLFKESYYQLMKTALKEDGVLCCQGECQWLHLDLIKEMRQFCQSLFPVVAYAYCTIPTYPSGQIGFMLCSKNPSTNFQEPVQPLTQQQVAQMQLKYYNSDVHRAAFVLPEFARKALNDVS | soluble
MGSDKIHHHHHHMDVRFINEQTIMIYFENKISEETYRNVTAMVRWIREKEILEIQDIVPSYRAVLIYFDEQAITSSKLIENLELNKFNEKNVHAVNQTNRIIKIPVQYGGTYGPDIEEVAKHNRITVEQVIEKHTSKPYLIYMLGFMPGFPYLGGLDEQLHTPRRNQPRLKIHAGSVGIANNQTGLYPSDSPGGWQIIGRTPLKVFSSEREPMSMYEAGEWIQFYAIDEQKFIQIERDISDGNFNVDDWVVIENVN | not soluble
MKKIGFIGLGNMGLPMSKNLVKSGYTVYGVDLNKEAEASFEKEGGIIGLSISKLAETCDVVFTSLPSPRAVEAVYFGAEGLFENGHSNVVFIDTSTVSPQLNKQLEEAAKEKKVDFLAAPVSGGVIGAENRTLTFMVGGSKDVYEKTESIMGVLGANIFHVSEQIDSGTTVKLINNLLIGFYTAGVSEALTLAKKNNMDLDKMFDILNVSYGQSRIYERNYKSFIAPENYEPGFTVNLLKKDLGFAVDLAKESELHLPVSEMLLNVYDEASQAGYGENDMAALYKKVSEQLISNQK | soluble
GPGSSLMFSRPPSKLSGAPTREDLDEIIAEEVREWVAKMVGVKHNADVWSMPNFVDALRSGVLLHVLLQKMESPPVSDEDLKLPKRTTGFFVRDNVATFLTTAKSRYDLVDAQLFTVSDLVDGKNDRQVVTCLMSIARIAYSAGAIK | not soluble
MFLVTGATGDIGRRVIRLLREHNHSVRGFARLTSRYGELEHRGANIFIGDLRREQDIEKACQGVQYIISAHGSDNDALTLDYRANIALIDQAKANGVQHFVFISVLGAERGYEDAPVFKAKRAVENYLAASGLNYTILRPAGLASNLLPLAERFRETGLYLLIGDPKNRTSIVSTDDLARIVVDSVTVPEARNQIFSVGGPEILLREDIPQIFSHIFKKEPIVVNSPLLVIDGLRGVLGLINPEAQQALGTFRTLLSNEFFCRKDEIAKLEQTFNFPLETLESFLRRYLAVLEHHHHHH | not soluble
MGHHHHHHSHDGSLVHISISPYPAILHEYVSSSKWEDAVRLCRFVKEQTMWACLAAMAVANRDMTTAEIAYAAIGEIDKVQYINSIKNLPSKESKMAHILLFSGNIQEAEIVLLQAGLVYQAIQININLYNWERALELAVKYKTHVDTVLAYRQKFLETFGKQETNKRYLHYAEGLQIDWEKIKAKIEMEITKEREQSSSSQSSKSIGLKP | not soluble
MQQPVINQQPGYNPQGMNPVQQFEMHQQQHQQAITTQPGVFVQPAPGSVWMPMPPAIQGVPTGLEYLTYLDTIMVHQIKELIEIVTDWETKNKYVLKNANGEQCYYAFEESGCCERQCCGPQRGFVMHIVDNFKREVLTIKREFKCCGGGCCGCLACIGCCQQECIIETPSMGVLGIIRQRCGCMSSNYDIMDGDGNVIFQIDGPCCCMLCGCQDKEFPIKTANNGTVVGAITKKWGGCFREAFTDADTFAVNFPGDLDVKLKGVLIGATFLIDFMEFEQQSQNRNNGGAYYSSS | not soluble
GMSRGHCILAHGFESGPDALKVTALAEVAERLGWTHERPDFTDLDARRDLGQLGDVRGRLQRLLEIARAATEKGPVVLAGSSLGSYIAAQVSLQVPTRALFLMVPPTKMGPLPALDAAAVPISIVHAWHDELIPAADVIAWAQARSARLLLVDDGHRLGAHVQAASRAFAELLQSL | soluble
MGSDKIHHHHHHMSTAIRYLRLYLHRPAAQGGGRRGIGYLSQYGDILRVSFDEDYIADPQRPTLSLSYRGANEADTQRILRSARDARLVRTDGRWPAYFQNLLPEGHNRDRLARERGCAPDDEFELLAAAGHDLMGALEVEPVPAQEGVPDVVRYWHTTQGLDVLEPGFVEYPVEDAASLPGVVTKFSAVQDGRRYLVKRRGAAGSVILKLPTTAHPDLVANEFTCYQLAGSLGLHCAQARIITRAEAELPEAVPLDDILAVQRFDHLADGTRVHMEEFNQALGYAPRQKYGKGLLQDWATMLRVVDRLSDQPVQDTREFLARMVAFILMGNTDAHLKNWALVYPDGHTPRLAPLYDPVCVAAFFEGATEHQYAVNRAIDRSMRALDWDALQALIKTAGLLRIPRHLALLRDLVRRAQADWPALLADAPSTLQRTVQARLAGGVALTHP | not soluble
